Like-named read-outs stand apart in the source and are kept apart here. Numbered stars: 1 amine (or outer) side, 2 acyl side, 3 side chain; on linkers, the order of the positions; unused ones are H or OH. Bridge positions count the residues as written; N and C are the ends. Side chains are listed from the residue outwards. Ends that are not written are not given here. * marks the point of attachment. C20 diacid = O=C(O)CCCCCCCCCCCCCCCCCCC(=O)*; γGlu = O=C(O)[C@H](CCC(=O)[*:2])N[*:1]
T1: human amylin receptor (amylin 3(a) receptor: human calcitonin receptor plus RAMP-3) (human, UniProt P30988 25-474; O60896 24-148, limits assumed)
T1 sequence (looked up) 1: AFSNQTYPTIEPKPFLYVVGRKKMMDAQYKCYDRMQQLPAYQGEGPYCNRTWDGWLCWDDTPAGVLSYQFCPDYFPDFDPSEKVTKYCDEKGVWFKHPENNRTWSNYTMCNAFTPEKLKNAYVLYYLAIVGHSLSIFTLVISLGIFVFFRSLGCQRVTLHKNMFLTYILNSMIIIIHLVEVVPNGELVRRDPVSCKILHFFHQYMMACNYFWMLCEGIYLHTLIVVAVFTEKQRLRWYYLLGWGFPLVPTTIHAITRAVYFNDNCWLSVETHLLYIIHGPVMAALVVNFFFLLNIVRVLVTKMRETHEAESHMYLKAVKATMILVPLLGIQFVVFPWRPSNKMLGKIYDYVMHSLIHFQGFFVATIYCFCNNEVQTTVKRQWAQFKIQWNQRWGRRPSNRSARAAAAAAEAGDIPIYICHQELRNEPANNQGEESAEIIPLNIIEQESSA
T1 sequence (looked up) 2: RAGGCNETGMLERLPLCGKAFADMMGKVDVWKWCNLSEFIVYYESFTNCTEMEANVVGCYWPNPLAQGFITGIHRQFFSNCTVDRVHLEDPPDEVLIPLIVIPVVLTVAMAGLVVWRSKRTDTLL

T2: human calcitonin receptor (human, UniProt P30988 25-474)
T2 sequence (looked up): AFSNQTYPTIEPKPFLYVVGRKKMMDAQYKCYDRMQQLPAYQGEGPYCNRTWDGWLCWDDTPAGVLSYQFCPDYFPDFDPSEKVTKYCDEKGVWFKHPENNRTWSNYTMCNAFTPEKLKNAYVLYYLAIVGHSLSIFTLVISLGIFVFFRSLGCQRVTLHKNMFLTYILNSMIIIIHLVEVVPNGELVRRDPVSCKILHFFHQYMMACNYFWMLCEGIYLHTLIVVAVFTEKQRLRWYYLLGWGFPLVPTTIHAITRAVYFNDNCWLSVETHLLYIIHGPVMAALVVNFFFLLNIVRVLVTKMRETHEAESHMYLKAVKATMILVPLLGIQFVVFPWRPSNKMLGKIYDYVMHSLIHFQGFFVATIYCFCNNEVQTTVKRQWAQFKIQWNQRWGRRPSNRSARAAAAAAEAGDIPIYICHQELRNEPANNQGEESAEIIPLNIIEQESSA

T3: human calcitonin receptor (human, UniProt P30988 25-474)
T3 sequence (looked up): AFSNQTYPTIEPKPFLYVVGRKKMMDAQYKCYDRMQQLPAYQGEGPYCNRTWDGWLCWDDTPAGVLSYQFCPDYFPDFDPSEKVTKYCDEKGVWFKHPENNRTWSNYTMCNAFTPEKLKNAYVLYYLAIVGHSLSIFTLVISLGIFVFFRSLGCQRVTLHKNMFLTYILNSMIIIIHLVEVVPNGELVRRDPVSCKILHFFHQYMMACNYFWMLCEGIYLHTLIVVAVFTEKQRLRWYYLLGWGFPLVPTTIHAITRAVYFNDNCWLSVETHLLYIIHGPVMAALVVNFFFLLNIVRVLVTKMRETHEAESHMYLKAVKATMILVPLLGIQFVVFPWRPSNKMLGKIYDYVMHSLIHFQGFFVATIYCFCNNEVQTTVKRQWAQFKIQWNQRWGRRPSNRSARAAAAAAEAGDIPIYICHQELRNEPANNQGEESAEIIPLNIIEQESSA


How the values were obtained:
Assay in all cases: cell-based or functional assay
[1] = molecular target: T1, human amylin receptor (amylin 3(a) …)
[2] = molecular target: T2, human calcitonin receptor
[3] = molecular target: T3, human calcitonin receptor; remark: listed apart in the source

Binder	Ratio hCT/hAmylin funct. [1]	hAmylin-R funct. EC50 [1]	hCTR funct. EC50 [2]	hCTR funct. EC50 [3]
KCNTATCATQRLANFLRHSSPNFGAIPSSTNVGHNTY (C20 diacid-gGlu on the alpha amino group of the N-terminal residue; disulfide bridge Cys2-Cys7; C-terminal amide, Synthetic acylated analogue of human amylin; also called compound 40) [N^α1-[(4S)-4-carboxy-4-(19-carboxynonadecanoylamino)butanoyl]-[Arg17,Pro21,Pro27,His34]-h-amylin]	16.4 ratio	0.164 nM	2.68 nM	–
KCNTATCATQRLAEFLRHSSPNFGAIPSSTNVGSNTY (C20 diacid-gGlu-2xOEG on the alpha amino group of the N-terminal residue; disulfide bridge Cys2-Cys7; C-terminal amide, Synthetic acylated analogue of human amylin; also called compound 19)	17.4 ratio	0.307 nM	5.32 nM	–

Continued, values first:

Ratio hCT/hAmylin funct. [1]	hAmylin-R funct. EC50 [1]	hCTR funct. EC50 [2]	hCTR funct. EC50 [3]	Binder
7.4 ratio	0.175 nM	1.29 nM	–	KCNTATCATQRLAEFLRHSSPNFGAIPSSTNVGSNTY (C20 diacid-gGlu on the alpha amino group of the N-terminal residue; disulfide bridge Cys2-Cys7; C-terminal amide, Synthetic acylated analogue of human amylin; also called compound 9) [N^α1-[(4S)-4-carboxy-4-(19-carboxynonadecanoylamino)butanoyl]-[Glu14,Arg17,Pro21,Pro27]-h-amylin]
9.2 ratio	0.22 nM	2.03 nM	–	{C20 diacid-γGlu}-KCNTATCATQRLANFLRHSSPNFGAIPSSTPVGSETY-NH2 (disulfide 2-7; SMILES CC[C@H](C)[C@H](NC(=O)[C@H](C)NC(=O)CNC(=O)[C@H](Cc1ccccc1)NC(=O)[C@H](CC(N)=O)NC(=O)[C@@H]1CCCN1C(=O)[C@H](CO)NC(=O)[C@H](CO)NC(=O)[C@H](Cc1c[nH]cn1)NC(=O)[C@H](CCCNC(=N)N)NC(=O)[C@H](CC(C)C)NC(=O)[C@H](Cc1ccccc1)NC(=O)[C@H](CC(N)=O)NC(=O)[C@H](C)NC(=O)[C@H](CC(C)C)NC(=O)[C@H](CCCNC(=N)N)NC(=O)[C@H](CCC(N)=O)NC(=O)[C@@H](NC(=O)[C@H](C)NC(=O)[C@@H]1CSSC[C@H](NC(=O)[C@H](CCCCN)NC(=O)CC[C@H](NC(=O)CCCCCCCCCCCCCCCCCCC(=O)O)C(=O)O)C(=O)N[C@@H](CC(N)=O)C(=O)N[C@@H]([C@@H](C)O)C(=O)N[C@@H](C)C(=O)N[C@@H]([C@@H](C)O)C(=O)N1)[C@@H](C)O)C(=O)N1CCC[C@H]1C(=O)N[C@@H](CO)C(=O)N[C@@H](CO)C(=O)N[C@H](C(=O)N1CCC[C@H]1C(=O)N[C@H](C(=O)NCC(=O)N[C@@H](CO)C(=O)N[C@@H](CCC(=O)O)C(=O)N[C@H](C(=O)N[C@@H](Cc1ccc(O)cc1)C(N)=O)[C@@H](C)O)C(C)C)[C@@H](C)O, Synthetic acylated analogue of human amylin; also called compound 28)
6.1 ratio	0.363 nM	2.21 nM	–	{C20 diacid-γGlu}-KCNTATCATQRLAEFLRHSSPNFGAIPSSTNVGSRTY-NH2 (disulfide 2-7; SMILES CC[C@H](C)[C@H](NC(=O)[C@H](C)NC(=O)CNC(=O)[C@H](Cc1ccccc1)NC(=O)[C@H](CC(N)=O)NC(=O)[C@@H]1CCCN1C(=O)[C@H](CO)NC(=O)[C@H](CO)NC(=O)[C@H](Cc1c[nH]cn1)NC(=O)[C@H](CCCNC(=N)N)NC(=O)[C@H](CC(C)C)NC(=O)[C@H](Cc1ccccc1)NC(=O)[C@H](CCC(=O)O)NC(=O)[C@H](C)NC(=O)[C@H](CC(C)C)NC(=O)[C@H](CCCNC(=N)N)NC(=O)[C@H](CCC(N)=O)NC(=O)[C@@H](NC(=O)[C@H](C)NC(=O)[C@@H]1CSSC[C@H](NC(=O)[C@H](CCCCN)NC(=O)CC[C@H](NC(=O)CCCCCCCCCCCCCCCCCCC(=O)O)C(=O)O)C(=O)N[C@@H](CC(N)=O)C(=O)N[C@@H]([C@@H](C)O)C(=O)N[C@@H](C)C(=O)N[C@@H]([C@@H](C)O)C(=O)N1)[C@@H](C)O)C(=O)N1CCC[C@H]1C(=O)N[C@@H](CO)C(=O)N[C@@H](CO)C(=O)N[C@H](C(=O)N[C@@H](CC(N)=O)C(=O)N[C@H](C(=O)NCC(=O)N[C@@H](CO)C(=O)N[C@@H](CCCNC(=N)N)C(=O)N[C@H](C(=O)N[C@@H](Cc1ccc(O)cc1)C(N)=O)[C@@H](C)O)C(C)C)[C@@H](C)O, Synthetic acylated analogue of human amylin; also called compound 16)
–	–	–	1.97 nM	K([γGlu-C20 diacid])CNTATCATQRLANFLRHSSPNFGAIPSSTNVGSNTY-NH2 (disulfide 2-7; N-terminus assumed; SMILES CC[C@H](C)[C@H](NC(=O)[C@H](C)NC(=O)CNC(=O)[C@H](Cc1ccccc1)NC(=O)[C@H](CC(N)=O)NC(=O)[C@@H]1CCCN1C(=O)[C@H](CO)NC(=O)[C@H](CO)NC(=O)[C@H](Cc1c[nH]cn1)NC(=O)[C@H](CCCNC(=N)N)NC(=O)[C@H](CC(C)C)NC(=O)[C@H](Cc1ccccc1)NC(=O)[C@H](CC(N)=O)NC(=O)[C@H](C)NC(=O)[C@H](CC(C)C)NC(=O)[C@H](CCCNC(=N)N)NC(=O)[C@H](CCC(N)=O)NC(=O)[C@@H](NC(=O)[C@H](C)NC(=O)[C@@H]1CSSC[C@H](NC(=O)[C@@H](N)CCCCNC(=O)CC[C@H](NC(=O)CCCCCCCCCCCCCCCCCCC(=O)O)C(=O)O)C(=O)N[C@@H](CC(N)=O)C(=O)N[C@@H]([C@@H](C)O)C(=O)N[C@@H](C)C(=O)N[C@@H]([C@@H](C)O)C(=O)N1)[C@@H](C)O)C(=O)N1CCC[C@H]1C(=O)N[C@@H](CO)C(=O)N[C@@H](CO)C(=O)N[C@H](C(=O)N[C@@H](CC(N)=O)C(=O)N[C@H](C(=O)NCC(=O)N[C@@H](CO)C(=O)N[C@@H](CC(N)=O)C(=O)N[C@H](C(=O)N[C@@H](Cc1ccc(O)cc1)C(N)=O)[C@@H](C)O)C(C)C)[C@@H](C)O, h-amylin derivative; disulfide bridge and C-terminal amide as told for human amylin; also called compound 48) [N^ε1-[(4S)-4-carboxy-4-(19-carboxynonadecanoylamino)butanoyl]-[Arg17,Pro21,Pro27]-h-amylin]
